Two molecules from paper PMC9997659, “TLN1 contains a cancer-associated cassette exon that alters talin-1 mechanosensitivity” (The Journal of Cell Biology, 2023) can be followed below.

The target of test [1] is Human talin-1 R1R2-17b (residues 482-786 + additional 17 residues of exon 17b) (human) (UniProt Q9Y490). Nature of the test: SEC; analytical gel filtration, Superdex 200 Increase 10/300 GL, run at room temperature; VD1 preincubated with talin R1R2 at a 3:1 ratio for 1 h at 37°C; 100 µl, 100-400 µM protein. A general note: SEC sorts molecules by how far they enter the pores of the column.

The target of test [2] is T1, Human talin-1 R1R2-WT (residues 482-786) (human, UniProt Q9Y490 482-786).
T1 construct: talin-1 (TLN1), human, rod domains R1 and R2, residues 482-786 of the 2,541 amino acid protein; codon optimized synthetic gene in pET151; also called wild-type R1R2; talin R1R2-WT; source: E. coli BL21(DE3)*, purified (Nickel-NTA, TEV cleavage, HiTrap Q)
T1 sequence (Q9Y490 482-786): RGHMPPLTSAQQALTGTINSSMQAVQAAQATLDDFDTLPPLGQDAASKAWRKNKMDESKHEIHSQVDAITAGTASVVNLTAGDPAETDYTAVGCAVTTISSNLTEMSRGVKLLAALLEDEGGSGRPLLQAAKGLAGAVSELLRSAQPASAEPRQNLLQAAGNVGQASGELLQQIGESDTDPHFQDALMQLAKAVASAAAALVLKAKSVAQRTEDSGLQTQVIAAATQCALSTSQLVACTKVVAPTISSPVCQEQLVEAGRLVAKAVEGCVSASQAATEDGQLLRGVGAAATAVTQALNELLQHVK
Nature of the test: NMR titration; 1H,15N TROSY spectra of 100 µM R1R2 alone and with 300 µM RIAM peptide; 50 mM NaCl, 15 mM NaH2PO4, 6 mM Na2HPO4, 2 mM DTT, pH 6.5, 298K. Conditions: both partners purified.

Where “and” joins values, the source holds several entries; their conditions need not be identical. Identical values can stand only once.

For “Vinculin domain 1 (VD1) (from UniProt P18206 1-258) (domain or fragment)”, the stoichiometry N (vinculin per talin) in test [1] is 2 and 3.

B1: RIAM peptide (residues 4-30) (peptide)
peptide: SEDIDQMFSTLLGEMDLLTQSLGVDTC
notes: RIAM (Rap1-effector), residues 4-30 as printed; source: synthetic peptide (GLBiochem)
For the molecule B1, the binding result in test [2] is “binds”.
